Earlier results, collected in US20010039026A1, “Assay method” (priority 2000, published 2001).

Key:
[1] = system: env-mediated cell-cell fusion
[2] = system: primary, nonsyncytium-inducing (NSI) HIV-1 strains; conditions: primary NSI HIV-1 strains
[3] = biological target: T1, CCCKR5 (Homo sapiens, UniProt P51681); conditions: transfected CHO-K1 cells
T1 construct: expressed in transfected cells; host or cells: CHO-K1 (stably transfected)
T1 sequence (P51681 whole entry): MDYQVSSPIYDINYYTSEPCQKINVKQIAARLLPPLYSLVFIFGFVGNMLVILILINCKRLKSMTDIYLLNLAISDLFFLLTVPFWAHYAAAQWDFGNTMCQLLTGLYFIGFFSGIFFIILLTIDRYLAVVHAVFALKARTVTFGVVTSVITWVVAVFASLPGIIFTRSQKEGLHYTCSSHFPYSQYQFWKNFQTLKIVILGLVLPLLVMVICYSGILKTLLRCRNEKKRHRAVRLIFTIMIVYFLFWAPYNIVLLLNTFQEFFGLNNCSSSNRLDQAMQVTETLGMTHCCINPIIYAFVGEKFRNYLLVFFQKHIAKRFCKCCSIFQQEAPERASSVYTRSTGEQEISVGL

B1: MIP-1-β: macrophage inflammatory protein, β-chemokine ligand of CCR5 (protein, UniProt P13236 24-92, looked up)
C-C motif chemokine 4: APMGSDPPTACCFSYTARKLPRNFVVDYYETSSLCSQPAVVFQTKRSKQVCADPSESWVQEYVYDLELN
For B1, the “block of env-mediated cell-cell fusion” value [1] is given as “block env-mediated cell-cell fusion”, the “inhibition of infection of CD4(+) cells at the virus entry stage” value [2] is given as “inhibit infection” and the “agonist activity at CCCKR5” value [3] is given as “active at physiologic concentrations”.
